One molecule from doi:10.1101/2023.11.20.565808 (bioRxiv, 2023) can be followed below.

The target of the test is GST-fused RACK1, WT (human, UniProt P63244 1-317). The test can be described thus: pull-down.

B1: His6-YTHDF2, WT (FL) (natural protein)
chain: MSASSLLEQRPKGQGNKVQNGSVHQKDGLNDDDFEPYLSPQARPNNAYTAMSDSYLPSYYSPSIGFSYSLGEAAWSTGGDTAMPYLTSYGQLSNGEPHFLPDAMFGQPGALGSTPFLGQHGFNFFPSGIDFSAWGNNSSQGQSTQSSGYSSNYAYAPSSLGGAMIDGQSAFANETLNKAPGMNTIDQGMAALKLGSTEVASNVPKVVGSAVGSGSITSNIVASNSLPPATIAPPKPASWADIASKPAKQQPKLKTKNGIAGSSLPPPPIKHNMDIGTWDNKGPVAKAPSQALVQNIGQPTQGSPQPVGQQANNSPPVAQASVGQQTQPLPPPPPQPAQLSVQQQAAQPTRWVAPRNRGSGFGHNGVDGNGVGQSQAGSGSTPSEPHPVLEKLRSINNYNPKDFDWNLKHGRVFIIKSYSEDDIHRSIKYNIWCSTEHGNKRLDAAYRSMNGKGPVYLLFSVNGSGHFCGVAEMKSAVDYNTCAGVWSQDKWKGRFDVRWIFVKDVPNSQLRHIRLENNENKPVTNSRDTQEVPLEKAKQVLKIIASYKHTTSIFDDFSHYEKRQEEEESVKKERQGRGK
For the molecule B1, the binding result is given as “binds”.
